Test results: patent US20240190999A1

Biological target: human 4-1BB on primary human CD8 T cells (human) (UniProt Q07011)
Assay: cell-based or functional assay

Sequence of human 4-1BB on primary human CD8 T cells (human) (Q07011 24-255 limits assumed): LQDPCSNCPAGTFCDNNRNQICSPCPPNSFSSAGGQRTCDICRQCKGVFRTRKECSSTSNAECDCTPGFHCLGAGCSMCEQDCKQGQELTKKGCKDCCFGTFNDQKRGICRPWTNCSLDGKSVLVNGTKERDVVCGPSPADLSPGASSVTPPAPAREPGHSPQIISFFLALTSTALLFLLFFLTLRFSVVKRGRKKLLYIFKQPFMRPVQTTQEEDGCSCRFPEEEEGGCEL

Row | Substance | EC50, IFNγ production by primary human CD8 T cells, antibody cross-linked via anti-Fc [pM] | EC50, IFNγ production by primary human CD8 T cells, antibody soluble [pM] | EC50, IFNγ production by primary human CD8 T cells, cross-linked via coated anti-Fc [pM] | EC50, IFNγ production by primary human CD8 T cells, without Fc-cross-linking [pM] | EC50, IFNγ production by primary human CD8 T cells, Fc-mediated cross-linking [pM]
1 | Anti-4-1BB mAb 20H4.9 (antibody) | 20 | 930 | 40 | 970 | 
2 | Anti-4-1BB mAb MOR-7480 (antibody) | 210 |  |  |  | 420
